Test results from the supplement of paper PMC10567573.

B1: WSB1 (parent)
chain: DLKDDGNMMKVLRGHQNWVYSCAF
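Further: lentivirally expressed fusions sorted by FACS into six bins by GFP to DsRed ratio, PSI derived from sequencing read proportions per bin multiplied by bin number.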

Variants of: B1
Test: protein stability index of a GFP-peptide fusion (GPS, HEK-293T) (PSI 1-6); higher = more stable
Settings: c terminus: a fixed tail appended
DLRDDGNMMKVLRGHQNWVYSCAF showed a protein stability index of 1.48.
With DLSDDGNMMKVLRGHQNWVYSCAF the protein stability index was 1.77.
DLTDDGNMMKVLRGHQNWVYSCAF showed a protein stability index of 2.65.
Variant DLWDDGNMMKVLRGHQNWVYSCAF has a protein stability index of 2.49.
DLYDDGNMMKVLRGHQNWVYSCAF gave a protein stability index of 1.84.
DLKCDGNMMKVLRGHQNWVYSCAF showed a protein stability index of 2.88.
In the case of DLKEDGNMMKVLRGHQNWVYSCAF, the protein stability index is reported as 1.91.
DLKFDGNMMKVLRGHQNWVYSCAF gave a protein stability index of 2.77.
DLKGDGNMMKVLRGHQNWVYSCAF gave a protein stability index of 1.16.
DLKHDGNMMKVLRGHQNWVYSCAF showed a protein stability index of 1.66.
Variant DLKIDGNMMKVLRGHQNWVYSCAF has a protein stability index of 2.67.
With DLKKDGNMMKVLRGHQNWVYSCAF the protein stability index was 2.29.
Variant DLKLDGNMMKVLRGHQNWVYSCAF has a protein stability index of 3.75.
In the case of DLKMDGNMMKVLRGHQNWVYSCAF, the protein stability index is reported as 2.4.
In the case of DLKNDGNMMKVLRGHQNWVYSCAF, the protein stability index is reported as 3.38.
For DLKPDGNMMKVLRGHQNWVYSCAF, the protein stability index was 2.28.
DLKQDGNMMKVLRGHQNWVYSCAF gave a protein stability index of 2.63.
Work on DLKRDGNMMKVLRGHQNWVYSCAF yielded a protein stability index of 1.59.
Variant DLKSDGNMMKVLRGHQNWVYSCAF has a protein stability index of 2.42.
In the case of DLKTDGNMMKVLRGHQNWVYSCAF, the protein stability index is reported as 1.98.
DLKWDGNMMKVLRGHQNWVYSCAF gave a protein stability index of 2.2.
In the case of DLKYDGNMMKVLRGHQNWVYSCAF, the protein stability index is reported as 2.28.
DLKDAGNMMKVLRGHQNWVYSCAF gave a protein stability index of 2.66.
Work on DLKDEGNMMKVLRGHQNWVYSCAF yielded a protein stability index of 1.96.
DLKDFGNMMKVLRGHQNWVYSCAF gave a protein stability index of 3.73.
For DLKDGGNMMKVLRGHQNWVYSCAF, the protein stability index was 1.68.
With DLKDHGNMMKVLRGHQNWVYSCAF the protein stability index was 1.86.
Work on DLKDIGNMMKVLRGHQNWVYSCAF yielded a protein stability index of 2.12.
DLKDKGNMMKVLRGHQNWVYSCAF showed a protein stability index of 1.69.
For DLKDMGNMMKVLRGHQNWVYSCAF, the protein stability index was 3.35.
Work on DLKDNGNMMKVLRGHQNWVYSCAF yielded a protein stability index of 2.04.
DLKDPGNMMKVLRGHQNWVYSCAF showed a protein stability index of 3.34.
DLKDQGNMMKVLRGHQNWVYSCAF gave a protein stability index of 2.
For DLKDRGNMMKVLRGHQNWVYSCAF, the protein stability index was 3.41.
Work on DLKDTGNMMKVLRGHQNWVYSCAF yielded a protein stability index of 3.18.
DLKDYGNMMKVLRGHQNWVYSCAF gave a protein stability index of 2.25.
With DLKDDANMMKVLRGHQNWVYSCAF the protein stability index was 2.03.
DLKDDCNMMKVLRGHQNWVYSCAF showed a protein stability index of 2.17.
In the case of DLKDDDNMMKVLRGHQNWVYSCAF, the protein stability index is reported as 1.94.
DLKDDENMMKVLRGHQNWVYSCAF gave a protein stability index of 2.38.
DLKDDINMMKVLRGHQNWVYSCAF showed a protein stability index of 2.23.
DLKDDKNMMKVLRGHQNWVYSCAF gave a protein stability index of 1.75.
DLKDDLNMMKVLRGHQNWVYSCAF gave a protein stability index of 1.13.
Variant DLKDDMNMMKVLRGHQNWVYSCAF has a protein stability index of 1.72.
DLKDDNNMMKVLRGHQNWVYSCAF showed a protein stability index of 2.12.
DLKDDPNMMKVLRGHQNWVYSCAF gave a protein stability index of 2.28.
Variant DLKDDQNMMKVLRGHQNWVYSCAF has a protein stability index of 1.58.
For DLKDDRNMMKVLRGHQNWVYSCAF, the protein stability index was 1.62.
DLKDDSNMMKVLRGHQNWVYSCAF gave a protein stability index of 1.92.
DLKDDVNMMKVLRGHQNWVYSCAF showed a protein stability index of 1.74.
DLKDDWNMMKVLRGHQNWVYSCAF gave a protein stability index of 3.64.
Variant DLKDDYNMMKVLRGHQNWVYSCAF has a protein stability index of 1.77.
With DLKDDGAMMKVLRGHQNWVYSCAF the protein stability index was 1.09.
DLKDDGCMMKVLRGHQNWVYSCAF gave a protein stability index of 1.83.
DLKDDGDMMKVLRGHQNWVYSCAF gave a protein stability index of 2.58.
For DLKDDGEMMKVLRGHQNWVYSCAF, the protein stability index was 1.66.
Variant DLKDDGGMMKVLRGHQNWVYSCAF has a protein stability index of 2.54.
DLKDDGHMMKVLRGHQNWVYSCAF showed a protein stability index of 1.62.
DLKDDGIMMKVLRGHQNWVYSCAF showed a protein stability index of 3.63.
DLKDDGKMMKVLRGHQNWVYSCAF showed a protein stability index of 2.
In the case of DLKDDGMMMKVLRGHQNWVYSCAF, the protein stability index is reported as 3.16.
Variant DLKDDGPMMKVLRGHQNWVYSCAF has a protein stability index of 2.54.
In the case of DLKDDGQMMKVLRGHQNWVYSCAF, the protein stability index is reported as 1.76.
DLKDDGRMMKVLRGHQNWVYSCAF gave a protein stability index of 1.71.
DLKDDGSMMKVLRGHQNWVYSCAF gave a protein stability index of 1.9.
With DLKDDGTMMKVLRGHQNWVYSCAF the protein stability index was 1.47.
In the case of DLKDDGVMMKVLRGHQNWVYSCAF, the protein stability index is reported as 2.03.
In the case of DLKDDGWMMKVLRGHQNWVYSCAF, the protein stability index is reported as 3.11.
With DLKDDGNAMKVLRGHQNWVYSCAF the protein stability index was 1.83.
For DLKDDGNCMKVLRGHQNWVYSCAF, the protein stability index was 1.38.
Work on DLKDDGNDMKVLRGHQNWVYSCAF yielded a protein stability index of 2.5.
DLKDDGNGMKVLRGHQNWVYSCAF showed a protein stability index of 2.55.
Variant DLKDDGNHMKVLRGHQNWVYSCAF has a protein stability index of 2.34.
DLKDDGNIMKVLRGHQNWVYSCAF gave a protein stability index of 2.03.
In the case of DLKDDGNKMKVLRGHQNWVYSCAF, the protein stability index is reported as 2.15.
Work on DLKDDGNLMKVLRGHQNWVYSCAF yielded a protein stability index of 1.15.
With DLKDDGNNMKVLRGHQNWVYSCAF the protein stability index was 2.29.
DLKDDGNPMKVLRGHQNWVYSCAF showed a protein stability index of 2.44.
In the case of DLKDDGNQMKVLRGHQNWVYSCAF, the protein stability index is reported as 2.26.
DLKDDGNRMKVLRGHQNWVYSCAF showed a protein stability index of 2.35.
In the case of DLKDDGNSMKVLRGHQNWVYSCAF, the protein stability index is reported as 2.02.
With DLKDDGNTMKVLRGHQNWVYSCAF the protein stability index was 1.54.
DLKDDGNVMKVLRGHQNWVYSCAF gave a protein stability index of 1.54.
For DLKDDGNWMKVLRGHQNWVYSCAF, the protein stability index was 1.09.
With DLKDDGNYMKVLRGHQNWVYSCAF the protein stability index was 1.39.
DLKDDGNMAKVLRGHQNWVYSCAF gave a protein stability index of 2.02.
In the case of DLKDDGNMDKVLRGHQNWVYSCAF, the protein stability index is reported as 1.88.
With DLKDDGNMEKVLRGHQNWVYSCAF the protein stability index was 2.03.
In the case of DLKDDGNMFKVLRGHQNWVYSCAF, the protein stability index is reported as 2.67.
In the case of DLKDDGNMHKVLRGHQNWVYSCAF, the protein stability index is reported as 2.19.
In the case of DLKDDGNMIKVLRGHQNWVYSCAF, the protein stability index is reported as 4.37.
For DLKDDGNMKKVLRGHQNWVYSCAF, the protein stability index was 1.95.
DLKDDGNMLKVLRGHQNWVYSCAF gave a protein stability index of 1.61.
In the case of DLKDDGNMNKVLRGHQNWVYSCAF, the protein stability index is reported as 1.89.
